# According to patent US7790697B2, “Compositions and methods for inhibiting the synthesis or expression of MMP-1” (Trustees of Dartmouth College, priority 2004, dated 2010):
# Assays:
# [1] = tested on: MMP-13 mRNA; test: Specificity qRT-PCR, MMP-13 mRNA in stable MDA-231 cells; type: cell-based, human; conditions: stable MDA-231 cell lines, 24 hour serum-free; group average ± S.D.; P=0.3 vs empty vector
# Excerpt: RNA Isolation and Real-Time RT-PCR. […] Real-Time PCR Primer Sequences. […] ID NO:7; MMP-1 reverse [NT] ID NO:8; MMP-2 forward [NT] ID NO:9; MMP-2 reverse [NT] ID NO:10; MMP-9 forward [NT] ID NO:11; MMP-9 reverse [NT] ID NO:12; MMP-13 forward [NT], SEQ ID NO:13; MMP-13 reverse [NT] ID NO:14; MMP-14 forward [NT] ID NO:15; MMP-14 reverse [NT] ID NO:16; GAPDH forward [NT] ID NO:17; GAPDH reverse [NT] ID NO:18; eGFP forward [NT] ID NO:19; eGFP reverse [NT] ID NO:20. Real-Time PCR Standards.
# [2] = tested on: MDA-231 cells; test: Tumorigenesis studies in nude mice, mammary fat pad injection of MDA-231 cells; type: in vivo
# Description: Tumorigenesis Studies in Mice. Pooled MDA-231 stable cell lines containing either the empty vector or the MMP-1 shRNA (1×10^6 cells/100 μL HBSS) were injected into the 4th inguinal fat pad of twenty-one female, 6-week-old nude mice (NU/NU; Charles River Laboratories, Wilmington, Mass.) using 28 gauge×½″ single-use insulin needles. Mice were examined weekly until tumors were grossly apparent, then they were examined several times per week. Each tumor was measured twice with Vernier calipers, and tumor volume was calculated using the formula: 4/3πr^3. When the two measurements differed, the smaller radius measurement was squared and multiplied by the largest radius measurement. This number was then substituted for the r^3 portion of the formula.
# The in vivo efficacy of the shRNA-mediated reduction of MMP-1 in the MDA-231 cells was analyzed. Nude mice were injected in the fourth inguinal mammary fat pad with MDA-231 cells containing either the empty vector or the MMP-1 shRNA. At week 6, tumors began to appear in the inguinal pad of several mice and at week 11, the mice were sacrificed.
# [3] = tested on: MDA-231 cells; test: Cell proliferation assay (MTT); type: cell-based; conditions: from 24 to 48 hours (in 24 hours); p=0.13 vs empty vector
# Description: Cell Proliferation Assay. The proliferation rate of the stably transfected MDA-231 cell lines at 24 and 48 hours was determined with a MTT assay as described in the manufacturer's protocol (ATCC). The optimum cell count was 10,000 cells per well of a 96-well tissue culture dish.
# Therefore, the only measured differences between the two groups of cell lines were the levels of MMP-1 mRNA and protein.
# [4] = tested on: MMP-1 protein; test: ELISA for MMP-1 protein in serum-free medium of stable MDA-231 cells; type: cell-based, human; conditions: for ng of MMP-1 protein per μg of total protein: average ± S.D.
# Description: ELISA for MMP-1 Protein. MMP-1 protein in serum-free culture medium of stably transfected MDA-231 cells was quantified with the human MMP-1 BIOTRAK™ ELISA system that measures both latent and active enzyme (Amersham). Cells were grown in six-well culture dishes with 1 mL of serum-free medium, and after 24 hours of incubation, 100 μL of a 1:30 dilution of the medium was used for the ELISA assays. The cells remaining in the wells were lysed with 350 μL passive lysis buffer (PROMEGA®, Madison, Wis.), and 70 μl was used in a Bradford assay (BIO-RAD®, Hercules, Calif.) to determine the total protein content. The ng of MMP-1 protein from the ELISA results was normalized to μg total protein.
# After initial neomycin selection and isolation of individual stable cell lines, MMP-1 mRNA and protein levels were determined using quantitative RT-PCR (qRT-PCR) and ELISA. MMP-1 mRNA levels were measured in RNA harvested from stably transfected cell lines after a 24 hour incubation in serum-free medium and were normalized to GAPDH mRNA levels. MMP-1 protein levels were measured in the serum-free media of the cell lines after 24 hours of incubation and were normalized to total protein content of the cells. The ELISA measured total (active and zymogen) forms of MMP-1 protein. […] To control for differences introduced into the cell lines during selection, these three individual cell lines for each group were pooled, and all subsequent experiments were performed on pooled cells.
molecule,measurement,setting,value
"MMP-1 shRNA: Vector-expressed small hairpin RNA, SEQ ID NO:1 (sense) and SEQ ID NO:2 (antisense), specific to bases 234-252 of MMP-1 mRNA (nucleic acid, the letters are possibly those of the target site) sense: GATCCCCACCAGATGCTGAAACCCTGTTCAAGAGACAGGGTTTCAGCATCTGGTTTTTTGGAAA antisense: AGCTTTTCCAAAAAACCAGATGCTGAAACCCTGTCTCTTGAACAGGGTTTCAGCATCTGGTGGG",MMP-13 mRNA level,[1],0.5 ± 0.2 copies of the target gene/pg GAPDH
same,average tumor size at time of sacrifice,"[2]; week 11, mean±s.e., n=10, p=0.027 vs empty vector",272±117 mm^3
same,frequency of tumor formation,"[2]; week 11, n=23, p=0.11 vs empty vector (57%), Fisher's exact test",36%
same,fold increase in metabolic activity,[3],2.03±0.06 fold
same,ng of MMP-1 protein per μg of total protein,"[4]; Group of cell lines D1, Y2, Y7, P=0.002 vs empty vector",0.46 ± 0.04 ng per μg of total protein
same,ng of MMP-1 protein per μg of total protein,[4]; MDA-231 cell line D1,0.49 ± 0.03 ng per μg of total protein
same,ng of MMP-1 protein per μg of total protein,[4]; MDA-231 cell line Y2,0.47 ± 0.01 ng per μg of total protein
same,ng of MMP-1 protein per μg of total protein,[4]; MDA-231 cell line Y7,0.42 ± 0.04 ng per μg of total protein
same,reduction in MMP-1 protein levels compared to empty vector cell lines,"[4]; three stable MDA-231 cell lines, 24 hour serum-free medium",greater than 90%
